The target of assay [1] is T1, mouse MerTK on mouse macrophages (mouse, UniProt Q60805 19-994).
T1 sequence (looked up): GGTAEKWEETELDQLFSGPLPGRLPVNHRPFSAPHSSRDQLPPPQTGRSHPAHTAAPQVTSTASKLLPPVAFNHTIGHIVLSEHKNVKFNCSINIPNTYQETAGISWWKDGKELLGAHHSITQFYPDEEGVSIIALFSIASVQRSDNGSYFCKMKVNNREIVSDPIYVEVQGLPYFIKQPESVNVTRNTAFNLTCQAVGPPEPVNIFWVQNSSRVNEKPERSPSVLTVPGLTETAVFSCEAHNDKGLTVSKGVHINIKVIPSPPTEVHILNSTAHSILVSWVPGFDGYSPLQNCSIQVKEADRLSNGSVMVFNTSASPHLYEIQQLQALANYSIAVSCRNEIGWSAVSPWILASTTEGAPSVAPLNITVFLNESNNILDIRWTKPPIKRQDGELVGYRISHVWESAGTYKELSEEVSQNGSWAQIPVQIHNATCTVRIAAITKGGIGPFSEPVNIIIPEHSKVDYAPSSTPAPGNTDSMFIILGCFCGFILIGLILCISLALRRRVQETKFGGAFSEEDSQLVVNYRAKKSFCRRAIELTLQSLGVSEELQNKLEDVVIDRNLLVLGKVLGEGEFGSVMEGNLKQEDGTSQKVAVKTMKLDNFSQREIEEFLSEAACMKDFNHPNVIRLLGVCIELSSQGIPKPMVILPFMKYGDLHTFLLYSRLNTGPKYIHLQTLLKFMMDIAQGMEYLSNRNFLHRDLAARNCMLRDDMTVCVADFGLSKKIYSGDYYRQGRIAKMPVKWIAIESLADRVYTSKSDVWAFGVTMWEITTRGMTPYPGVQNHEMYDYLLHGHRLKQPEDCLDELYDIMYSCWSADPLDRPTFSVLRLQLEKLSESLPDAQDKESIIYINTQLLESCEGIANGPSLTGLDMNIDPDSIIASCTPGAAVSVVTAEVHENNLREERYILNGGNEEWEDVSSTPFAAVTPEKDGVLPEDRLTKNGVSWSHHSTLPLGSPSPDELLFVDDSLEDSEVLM
Kind of assay: cell-based or functional assay.

In assay [2] the target is T2, human MerTK (human, UniProt Q12866 26-499).
T2 construct: also called HuMER
T2 sequence: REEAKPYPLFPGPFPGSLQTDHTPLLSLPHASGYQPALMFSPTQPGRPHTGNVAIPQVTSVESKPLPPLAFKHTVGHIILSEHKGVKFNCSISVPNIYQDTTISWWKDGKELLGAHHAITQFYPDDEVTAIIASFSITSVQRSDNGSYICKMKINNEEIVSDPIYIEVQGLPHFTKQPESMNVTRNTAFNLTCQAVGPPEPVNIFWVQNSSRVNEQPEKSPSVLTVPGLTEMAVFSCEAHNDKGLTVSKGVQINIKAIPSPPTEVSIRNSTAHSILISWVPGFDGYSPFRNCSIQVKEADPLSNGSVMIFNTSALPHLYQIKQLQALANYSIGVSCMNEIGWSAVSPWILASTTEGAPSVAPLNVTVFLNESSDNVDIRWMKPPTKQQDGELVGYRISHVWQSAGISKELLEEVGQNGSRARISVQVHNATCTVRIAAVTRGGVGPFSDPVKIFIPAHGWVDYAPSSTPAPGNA
Kind of assay: SPR BIAcore T200, Ab captured, 37C. (In general: In SPR one partner is held on a chip, and binding of the other changes the refractive index at the surface.)

Assay [3] has as its target T2, human MerTK. Kind of assay: SPR BIAcore T200, Ab captured, 37C. On the procedure: (§1) All binding affinity determinations were obtained using Surface Plasmon Resonance (SPR) measurements from a BIAcore™-T200 instrument. Briefly, each rabbit or humanized antibody was captured to achieve approximately 100 RU (Response Units). Then, 3-fold serial dilutions of MerTK from various species (0.4 nM to 100 nM) diluted in HBS-EP buffer (0.01M HEPES pH 7.4, 0.15M NaCl, 3 mM EDTA and 0.05% v/v surfactant P20) was injected into the BIAcore™-T200 instrument at 25° C. or 37° C. with a flow rate of 30 μl/min. Association rates (kₒₙ) and dissociation rates (koff) were calculated using a simple one-to-one Langmuir binding model (BIAcore T200 evaluation software version 2.0). The equilibrium dissociation constant (KD) was calculated as the ratio koff/kₒₙ.
This is another data set of the same source.

Assay [4] concerns the target T3, cynomolgus monkey MerTK (cynomolgus monkey, UniProt A0A2K5V1H9 32-505).
T3 construct: Soluble analyte in SPR; also called Cyno MerTK
T3 sequence: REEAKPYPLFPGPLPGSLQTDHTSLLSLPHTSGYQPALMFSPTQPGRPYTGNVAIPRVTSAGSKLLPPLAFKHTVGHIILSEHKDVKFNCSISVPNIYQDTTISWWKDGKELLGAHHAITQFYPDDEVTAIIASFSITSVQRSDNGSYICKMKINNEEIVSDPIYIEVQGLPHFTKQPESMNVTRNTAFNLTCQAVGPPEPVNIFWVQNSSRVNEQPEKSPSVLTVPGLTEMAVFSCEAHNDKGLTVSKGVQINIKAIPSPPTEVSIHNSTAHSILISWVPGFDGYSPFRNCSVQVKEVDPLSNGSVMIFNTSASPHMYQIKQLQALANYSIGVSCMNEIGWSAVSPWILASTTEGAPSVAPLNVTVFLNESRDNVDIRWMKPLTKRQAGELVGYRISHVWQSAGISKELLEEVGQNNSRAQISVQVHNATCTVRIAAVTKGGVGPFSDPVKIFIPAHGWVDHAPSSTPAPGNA
Kind of assay: SPR BIAcore T200, Ab captured, 37C. On the procedure: as §1

The target of assay [5] is T4, rat MerTK (rat, UniProt P57097 23-496, limits assumed).
T4 construct: Soluble analyte in SPR
T4 sequence (looked up): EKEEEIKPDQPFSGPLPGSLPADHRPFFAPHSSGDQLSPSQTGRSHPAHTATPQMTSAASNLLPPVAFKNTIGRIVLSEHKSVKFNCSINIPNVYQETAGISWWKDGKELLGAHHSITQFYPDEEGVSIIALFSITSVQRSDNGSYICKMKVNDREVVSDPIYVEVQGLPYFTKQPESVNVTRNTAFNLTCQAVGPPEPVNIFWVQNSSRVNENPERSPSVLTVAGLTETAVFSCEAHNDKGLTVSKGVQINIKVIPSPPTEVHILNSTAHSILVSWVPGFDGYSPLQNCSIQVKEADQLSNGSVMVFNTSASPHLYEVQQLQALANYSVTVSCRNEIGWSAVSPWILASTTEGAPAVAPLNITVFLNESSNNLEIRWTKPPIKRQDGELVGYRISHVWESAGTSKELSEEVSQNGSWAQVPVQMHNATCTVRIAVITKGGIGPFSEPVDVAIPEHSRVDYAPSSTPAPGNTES
In words: SPR BIAcore T200, Ab captured, 37C. On the procedure: as §1

Assay [6] addresses T5, mouse MerTK (mouse, UniProt Q60805 23-496).
T5 construct: also called MuMER
T5 sequence (looked up): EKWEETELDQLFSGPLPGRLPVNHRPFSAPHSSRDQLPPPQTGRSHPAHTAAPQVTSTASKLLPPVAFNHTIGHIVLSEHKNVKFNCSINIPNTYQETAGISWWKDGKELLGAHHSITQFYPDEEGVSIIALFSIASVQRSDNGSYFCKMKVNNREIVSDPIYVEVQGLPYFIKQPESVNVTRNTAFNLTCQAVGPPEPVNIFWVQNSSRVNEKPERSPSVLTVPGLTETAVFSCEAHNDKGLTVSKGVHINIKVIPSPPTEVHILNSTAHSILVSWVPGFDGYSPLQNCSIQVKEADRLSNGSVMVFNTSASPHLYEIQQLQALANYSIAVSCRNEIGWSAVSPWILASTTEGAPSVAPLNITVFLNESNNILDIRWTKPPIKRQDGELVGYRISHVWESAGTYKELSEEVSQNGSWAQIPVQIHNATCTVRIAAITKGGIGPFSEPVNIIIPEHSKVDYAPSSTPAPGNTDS
Kind of assay: SPR BIAcore T200, Ab captured, 37C. On the procedure: as §1

The target of assay [7] is T2, human MerTK. In words: SPR BIAcore T200, Ab captured, 37C. The essentials: (§2)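 Rabbit or humanized antibody captured to ~100 RU; MerTK injected as 3-fold dilutions from 0.4 nM to 100 nM in HBS-EP (HEPES pH 7.4) at 30 μl/min, at 25° C. or 37° C. kon and koff fitted to a 1:1 Langmuir model; KD = koff/kon.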
The source holds these as a separate data set.

The target in assay [8] is T3, cynomolgus monkey MerTK. Kind of assay: SPR BIAcore T200, Ab captured, 37C. A digest of the protocol: as §2
The source holds these as a separate data set.

The target of assay [9] is T4, rat MerTK. In words: SPR BIAcore T200, Ab captured, 37C. A digest of the protocol: as §2
The source holds these as a separate data set.

Assay [10] deals with T5, mouse MerTK. Kind of assay: SPR BIAcore T200, Ab captured, 37C. The essentials:
as §2
This is another data set of the same source.

In assay [11] the target is T2, human MerTK. Kind of assay: SPR BIAcore T200, Ab captured, 37C. On the procedure: as §1
The source holds these as a separate data set.

The target in assay [12] is T3, cynomolgus monkey MerTK. Kind of assay: SPR BIAcore T200, Ab captured, 37C. On the procedure: as §1
This is another data set of the same source.

Assay [13] addresses T2, human MerTK. Kind of assay: SPR BIAcore T200, Ab captured, 25C. The essentials: as §2
The target of assay [14] is T3, cynomolgus monkey MerTK. In words: SPR BIAcore T200, Ab captured, 25C. The essentials:
as §2

The target in assay [15] is T5, mouse MerTK. Kind of assay: SPR BIAcore T200, Ab captured, 25C. A digest of the protocol: as §2
The target of assay [16] is T6, HuMER (R26-A499) (human, UniProt Q12866 26-499).
T6 construct: Extracellular domain with both Ig-like and both fibronectin-like domains; also called human MerTK extracellular domain
T6 sequence: T2 sequence
In words: SPR BIAcore T200, Ab captured, 25C. A digest of the protocol:
(§3)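 Rabbit antibody captured to ~100 RU; MerTK domain injected as 3-fold dilutions (0.4–100 nM) in HBS-EP pH 7.4 at 25 °C, 30 μl/min. kon and koff from 1:1 Langmuir fit; KD = koff/kon.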

The target in assay [17] is T7, MuMER (E23-S496) (mouse, UniProt Q60805 23-496).
T7 construct: range 23-496; also called mouse MerTK extracellular domain
T7 sequence (looked up): T5 sequence (looked up)
In words: SPR BIAcore T200, Ab captured, 25C. A digest of the protocol:
as §3

Read-outs that look alike come from different tables or passages of the source.

Consider “recombinant human GAS6-Fc protein (from UniProt Q14393 31-678) (Fc fusion)”, for which the pAKT levels in macrophages incubated with the ligand in [1] stood at 84 pM.

B1: h10C3.v1 (antibody, V domains shown)
VH: EQQLVESGGGLVQPGGSLRLSCAASGFSLSGYTMGWVRQAPGKGLEYIGVISSGGTTYYTNWAKGRFTISKDSSKNTVYLQMGSLRAEDMAVYFCARVAFTAYGGGGFPTLHRLDLWGQGTLVTVSS
VL: DQVLTQSPDSLAVSLGERATINCQSSESVYNNDYLAWYQQKPGQPPKLLIYSASTLASGVPDRFSGSGSGTDFTLTISSLQAEDVAVYYCAGGYLGNNVFGGGTKVEIK
notes: also called h10C3.V1 (Parent); 10C3 Humanized mAb V1
What is called Kd is a measure of binding affinity in units of concentration. On to B1, for which the Kd was determined as 13.8 nM in [2]; 12.9 nM in assay [3]; 5.3 nM in assay [4]; 3.3 nM in [5]; 1.1 nM in assay [6]; 11.6 nM in assay [7]. Moreover, the equilibrium dissociation constant (Kd) in assay [8] was 5.3 nM; in assay [9], 3.3 nM; in [10] it was 1 nM.

B2: h13B4.v1 (antibody, V domains shown)
VH: EQQLVESGEGLVQPGGSLRLSCAVSGFSLSSYAMGWVRQAPGKGLEWIGIINSYGNTYYANWAKGRFTISRDSSKNTVYLQMGSLRAEDMAVYFCARDPGVSSNLWGPGTLVTVSS
VL: DVQMTQSPSTLSASVGDRVTITCQASQNIYSGLAWYQQKPGKPPKLLIYGASKLASGVPSRFSGSGSGTEFTLTISSLQPDDFATYYCQATYYSSNSVAFGGGTKVEIK
notes: also called h13B4.V1 (Parent); 13B4 Humanized mAb V1
In the case of B2, the dissociation constant Kd was 4.8 nM in [2]; 4.8 nM in assay [7]; 5.6 nM in assay [8]; 4.3 nM in [11]; 5 nM in assay [12].

B3: Rbt10C3 (antibody, V domains shown)
VH: QSLEESGGRLVTPGTPLTLTCTASGFSLSGYTMGWVRQAPGKGLEYIGVISSGGTTYYTNWAKGRFTISKTSTTVDLKITSPTTEDTATYFCARVAFTAYGGGGFPTLHRLDLWGQGTLVTVSS
VL: AQVLIQTASSVSAAVGGTVTISCQSSESVYNNDYLAWYQQKPGQPPKLLIYSASTLASGVPSRFKGSGSGTQFTLTISDLECDDAATYYCAGGYLGNNVFGGGTEVVVK
notes: Recombinant rabbit monoclonal antibody, Expi293, protein A purified
Turning to B3, the Kd in assay [13] is 3.4 nM; in [14], 3 nM; in assay [15], 0.7 nM; in assay [3], 9.9 nM; in assay [4], 4.1 nM; in assay [5] it was 2.4 nM. Besides, the Kd was 0.8 nM in assay [6], 3.4 nM in assay [16] and 0.7 nM in assay [17].

Values taken from patent US20220135701A1 (Genentech, published 2022).
